Experimental data taken from the Immune Epitope Database (IEDB).

How the values were obtained:
HLA-A*02:02 = assay: IEDB peptide-MHC binding, purified MHC/competitive/radioactivity; filed as Kd, often an IC50 or EC50 that approximates it; ≥ and ≤ were set here for values at or beyond the usual limits of such assays
HLA-A*02:06 = assay: as above
HLA-A*02:03 = assay: as above
HLA-A*02:01 [1] = assay: IEDB peptide-MHC binding, purified MHC/competitive/fluorescence; ≥ and ≤ were set here for values at or beyond the usual limits of such assays; settings: source organism: Sudan ebolavirus
HLA-A*30:01 = assay: IEDB peptide-MHC binding, purified MHC/competitive/radioactivity; filed as Kd, often an IC50 or EC50 that approximates it; ≥ and ≤ were set here for values at or beyond the usual limits of such assays
HLA-A*68:01 = assay: as above
HLA-A*02:01 [2] = assay: IEDB peptide-MHC binding, purified MHC/competitive/fluorescence; filed as Kd, often an IC50 or EC50 that approximates it; ≥ and ≤ were set here for values at or beyond the usual limits of such assays
HLA-A*24:02 = assay: IEDB peptide-MHC binding, purified MHC/competitive/radioactivity; filed as Kd, often an IC50 or EC50 that approximates it; ≥ and ≤ were set here for values at or beyond the usual limits of such assays; settings: source organism: Dengue virus 2 Jamaica/1409/1983
HLA-A*11:01 = assay: as above
HLA-A*03:01 [3] = assay: as above
HLA-A*30:02 = assay: as above; settings: source organism: Dengue virus 4 Philippines/H241/1956
HLA-A*33:01 = assay: as above; settings: source organism: Vaccinia virus WR
HLA-A*31:01 = assay: as above; settings: source organism: Vaccinia virus WR
HLA-B*58:01 = assay: IEDB peptide-MHC binding, purified MHC/direct/fluorescence; filed as Kd, often an IC50 or EC50 that approximates it; ≥ and ≤ were set here for values at or beyond the usual limits of such assays; settings: source organism: Influenza A virus (A/Yilan/515/03(H3N2))
HLA-B*15:01 = assay: as above; settings: source organism: Influenza A virus (A/Chicken/Nanchang/2-220/2001(H3N6))
HLA-A*01:01 = assay: as above
HLA-B*07:02 = assay: as above; settings: source organism: Orthohantavirus hantanense
HLA-A*69:01 = assay: as above
HLA-A*03:01 [4] = assay: as above; settings: source organism: Francisella tularensis subsp. holarctica OSU18
[5] = source organism: Vaccinia virus WR
[6] = source organism: Dengue virus 3 Martinique/1243/1999
[7] = source organism: Dengue virus 2 Jamaica/1409/1983
[8] = source organism: Dengue virus 4 Philippines/H241/1956
[9] = source organism: Dengue virus 1 Brazil/97-11/1997
[10] = source organism: SARS coronavirus Tor2
[11] = source organism: Mycobacterium tuberculosis

For MLNRVQILM, the Kd (HLA-A*02:02; [5]) was 4.75 nM, the Kd (HLA-A*02:06; [5]) was 2560 nM and the Kd (HLA-A*02:03; [5]) was 26.9 nM.
EQGDIALAL showed a Kd (HLA-A*02:02; [5]) of 701 nM, a Kd (HLA-A*02:06; [5]) of 4770 nM and a Kd (HLA-A*02:03; [5]) of 11100 nM.
In the case of GRLIWTLDA, the IC50 (HLA-A*02:01 [1]) is reported as ≥ 593000 nM.
ESRTIRVLK gave a Kd (HLA-A*30:01; [6]) of 8.81 nM and a Kd (HLA-A*68:01; [6]) of 237 nM.
LAAVSVSPLL showed a Kd (HLA-A*30:01; [7]) of 6020 nM.
Work on LNIMNKLNI yielded a Kd (HLA-A*02:01 [2]; source organism: Vaccinia virus Copenhagen) of 406 nM.
KYQLAVTIM gave a Kd (HLA-A*24:02) of 29.2 nM.
Work on KILAKAIFK yielded a Kd (HLA-A*11:01; [8]) of 79.3 nM, a Kd (HLA-A*30:01; [8]) of 292 nM and a Kd (HLA-A*03:01 [3]; [8]) of 11.9 nM.
SMYVIPDEL showed a Kd (HLA-A*02:02; [5]) of 5.02 nM, a Kd (HLA-A*02:06; [5]) of 2820 nM and a Kd (HLA-A*02:03; [5]) of 13.4 nM.
With RWFVERNMVT the Kd (HLA-A*24:02) was 855 nM.
Work on ATLNTLITL yielded a Kd (HLA-A*02:02; [5]) of 373 nM, a Kd (HLA-A*02:06; [5]) of 9.59 nM and a Kd (HLA-A*02:03; [5]) of 577 nM.
Work on TTRHRKPTY yielded a Kd (HLA-A*30:01; [8]) of 1180 nM and a Kd (HLA-A*30:02) of 658 nM.
With VMRSRWSRK the Kd (HLA-A*30:01; [9]) was 10.8 nM and the Kd (HLA-A*03:01 [3]; [9]) was 4.86 nM.
KIKLILANK was tested, and the Kd (HLA-A*11:01; [5]) was 146 nM, the Kd (HLA-A*33:01) was ≥ 25600 nM and the Kd (HLA-A*30:01; [5]) was 109 nM. The Kd (HLA-A*68:01; [5]) was ≥ 28300 nM, the Kd (HLA-A*31:01) was 1.46 nM and the Kd (HLA-A*03:01 [3]; [5]) was 21.6 nM.
In the case of MGRFGYVPY, the Kd (HLA-A*30:01; [5]) is reported as 14.8 nM.
For KSFFSRLNW, the Kd (HLA-B*58:01) was 139 nM.
In the case of EVTEIDQLV, the IC50 (HLA-A*02:01 [1]) is reported as ≥ 86100 nM.
CLMTYSHHA gave a Kd (HLA-A*02:01 [2]; source organism: Escherichia coli F11) of 0.9 nM.
CVMYASALV showed a Kd (HLA-A*02:02; [10]) of 4.48 nM, a Kd (HLA-A*02:06; [10]) of 7.36 nM and a Kd (HLA-A*02:03; [10]) of 2.94 nM.
In the case of TQFESLKIY, the Kd (HLA-B*15:01) is reported as 211 nM.
With KSHTLWSNG the Kd (HLA-A*30:01; [7]) was 425 nM.
For NVMAADPPK, the Kd (HLA-A*01:01; source organism: Yersinia pestis) was ≥ 20000 nM.
With ASKFVYVSV the Kd (HLA-A*30:01; [5]) was 3.09 nM.
With FTKDGKLDDT the Kd (HLA-A*02:02; [5]) was 145 nM, the Kd (HLA-A*02:06; [5]) was 898 nM and the Kd (HLA-A*02:03; [5]) was 187 nM.
NAHEGQLVI was tested, and the Kd (HLA-B*07:02) was ≥ 25300 nM and the Kd (HLA-A*69:01; source organism: Orthohantavirus hantanense) was 3400 nM.
SQKTTWLPV was tested, and the Kd (HLA-A*30:01; [9]) was 15.1 nM and the Kd (HLA-A*02:06; [9]) was 175 nM.
MMPIKSIVTL gave a Kd (HLA-A*02:01 [2]; source organism: Variola virus) of 5.1 nM.
Work on ILQMREIIT yielded a Kd (HLA-A*02:02; [5]) of 4100 nM, a Kd (HLA-A*02:06; [5]) of 1230 nM and a Kd (HLA-A*02:03; [5]) of 1340 nM.
For DLFMSHVKSV, the Kd (HLA-A*02:02; [5]) was 3380 nM, the Kd (HLA-A*02:06; [5]) was 19800 nM and the Kd (HLA-A*02:03; [5]) was 41.7 nM.
With HVSISSCNG the Kd (HLA-A*30:01; [5]) was 502 nM.
DVEKRILNT was tested, and the Kd (HLA-A*02:02; [5]) was 5820 nM, the Kd (HLA-A*02:06; [5]) was ≥ 77100 nM and the Kd (HLA-A*02:03; [5]) was 6720 nM.
Work on DLNAVTTNNL yielded a Kd (HLA-A*02:02; [5]) of 1830 nM, a Kd (HLA-A*02:06; [5]) of 7520 nM and a Kd (HLA-A*02:03; [5]) of 1630 nM.
In the case of MLLTFLTSLL, the Kd (HLA-A*02:02; [10]) is reported as 0.734 nM, the Kd (HLA-A*02:06; [10]) is reported as 24.6 nM and the Kd (HLA-A*02:03; [10]) is reported as 7.34 nM.
With LLWFLTGTFV the Kd (HLA-A*02:02; [5]) was 2.42 nM, the Kd (HLA-A*02:06; [5]) was 18 nM and the Kd (HLA-A*02:03; [5]) was 9.18 nM.
With YVILKDPRI the Kd (HLA-A*02:02; [5]) was 1550 nM, the Kd (HLA-A*02:06; [5]) was 11.7 nM and the Kd (HLA-A*02:03; [5]) was 203 nM.
In the case of KMLEASTIY, the Kd (HLA-A*03:01 [4]) is reported as 190 nM.
In the case of QMDGAILVV, the Kd (HLA-A*69:01; source organism: Brucella abortus 2308) is reported as 3440 nM.
Work on LVMDKNHAI yielded a Kd (HLA-A*02:02; [5]) of 19 nM, a Kd (HLA-A*02:06; [5]) of 103 nM and a Kd (HLA-A*02:03; [5]) of 770 nM.
With RTRPRWIPA the Kd (HLA-A*01:01; [11]) was ≥ 20000 nM.
With RTKLMSNIK the Kd (HLA-A*11:01; [5]) was 29.4 nM, the Kd (HLA-A*33:01) was ≥ 56800 nM and the Kd (HLA-A*30:01; [5]) was 0.38 nM. The Kd (HLA-A*68:01; [5]) was 778 nM, the Kd (HLA-A*31:01) was 4.49 nM and the Kd (HLA-A*03:01 [3]; [5]) was 23.6 nM.
Work on GILIYDDNI yielded a Kd (HLA-A*02:02; [5]) of 11700 nM, a Kd (HLA-A*02:06; [5]) of 13300 nM and a Kd (HLA-A*02:03; [5]) of 1700 nM.
FLHGGDFGV was tested, and the Kd (HLA-A*69:01; [11]) was 690 nM.
